Results taken from publication PMC8908738.

What was measured:
thrombin [1] = target: T1, thrombin (UniProt P00734;P00734 328-363;364-622); assay: competitive hybridization, CD of DNA origami chiral plasmonic probe; 170 nM thrombin, n=7-11 bp at aptamer 5' end; R2=0.94 (below the authors' 0.95 validity threshold); Binding buffer, pH and temperature not given in the material shown; origami assembled in TE with 20 mM MgCl2 and 5 mM NaCl; thrombin 170 nM
thrombin [2] = target: T1, thrombin; assay: competitive hybridization, CD of DNA origami chiral plasmonic probe; 170 nM thrombin, n=7-11 bp at aptamer 3' end; R2=0.97; Binding buffer, pH and temperature not given in the material shown; origami assembled in TE with 20 mM MgCl2 and 5 mM NaCl; thrombin 170 nM

| Binder | Kd (thrombin [1]) | Kd (thrombin [2]) |
| --- | --- | --- |
| CTAGCGAGCGAACTTTGGTTGGTGTGGTTGG (structured_DNA) [thrombin DNA aptamer, 5' bridge lock (complement hybridizes at aptamer 5' end)] | 235 nM |  |
| GGTTGGTGTGGTTGGTTTAGAGTGAGCAGAG (structured_DNA) [thrombin DNA aptamer, 3' bridge lock (complement hybridizes at aptamer 3' end)] |  | 46.7 nM |
